Laboratory results taken from patent US20180118846A1.
Blank lines part the entries; values can stand above or below the substance they belong to.

Columns and labels:
Experiment in all cases: cell-based or functional assay
CEACAM5 (human) = CEACAM5 (human) (UniProt P06731)
CD20 (human) = CD20 (human) (UniProt P11836)
CD19 (human) = CD19 (human) (UniProt P15391)
HLA-DR (human) = target: HLA-DR (human)
CEACAM6 (human) = CEACAM6 (human) (UniProt P40199)
CD22 (human) = CD22 (human) (UniProt P20273)

Sequence of CD19 (human) (P15391 20-556): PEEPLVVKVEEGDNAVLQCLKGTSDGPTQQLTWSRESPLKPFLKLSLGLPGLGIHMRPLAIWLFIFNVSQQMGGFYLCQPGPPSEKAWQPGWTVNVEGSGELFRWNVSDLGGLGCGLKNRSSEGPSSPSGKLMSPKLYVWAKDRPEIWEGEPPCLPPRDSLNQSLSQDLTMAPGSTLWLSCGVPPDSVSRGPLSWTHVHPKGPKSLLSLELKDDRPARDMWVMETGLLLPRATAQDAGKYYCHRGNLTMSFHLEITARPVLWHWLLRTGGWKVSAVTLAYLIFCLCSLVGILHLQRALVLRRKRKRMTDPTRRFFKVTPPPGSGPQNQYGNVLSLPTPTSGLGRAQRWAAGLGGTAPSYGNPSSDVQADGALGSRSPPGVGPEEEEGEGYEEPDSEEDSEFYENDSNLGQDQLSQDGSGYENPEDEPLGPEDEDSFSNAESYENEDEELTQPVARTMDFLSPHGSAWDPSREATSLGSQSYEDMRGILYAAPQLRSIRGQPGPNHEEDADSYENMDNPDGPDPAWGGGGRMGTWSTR
Sequence of CD20 (human) (P11836 whole entry): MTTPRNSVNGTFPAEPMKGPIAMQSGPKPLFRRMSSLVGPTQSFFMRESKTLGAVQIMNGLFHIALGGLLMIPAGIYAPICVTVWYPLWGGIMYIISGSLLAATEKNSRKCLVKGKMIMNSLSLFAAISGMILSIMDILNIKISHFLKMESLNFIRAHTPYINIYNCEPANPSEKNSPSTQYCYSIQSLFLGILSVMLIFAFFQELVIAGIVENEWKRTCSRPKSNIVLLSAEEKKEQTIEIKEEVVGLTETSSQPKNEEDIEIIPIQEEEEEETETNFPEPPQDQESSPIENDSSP
Sequence of CEACAM6 (human) (P40199 35-320): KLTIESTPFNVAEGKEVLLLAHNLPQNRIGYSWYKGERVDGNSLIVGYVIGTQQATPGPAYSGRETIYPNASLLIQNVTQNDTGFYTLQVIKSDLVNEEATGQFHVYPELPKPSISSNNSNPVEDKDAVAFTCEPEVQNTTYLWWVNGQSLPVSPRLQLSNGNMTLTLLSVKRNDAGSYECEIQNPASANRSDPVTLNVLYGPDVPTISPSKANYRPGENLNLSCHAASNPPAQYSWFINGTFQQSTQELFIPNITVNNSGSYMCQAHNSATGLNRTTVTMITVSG
Sequence of CEACAM5 (human) (P06731 35-702): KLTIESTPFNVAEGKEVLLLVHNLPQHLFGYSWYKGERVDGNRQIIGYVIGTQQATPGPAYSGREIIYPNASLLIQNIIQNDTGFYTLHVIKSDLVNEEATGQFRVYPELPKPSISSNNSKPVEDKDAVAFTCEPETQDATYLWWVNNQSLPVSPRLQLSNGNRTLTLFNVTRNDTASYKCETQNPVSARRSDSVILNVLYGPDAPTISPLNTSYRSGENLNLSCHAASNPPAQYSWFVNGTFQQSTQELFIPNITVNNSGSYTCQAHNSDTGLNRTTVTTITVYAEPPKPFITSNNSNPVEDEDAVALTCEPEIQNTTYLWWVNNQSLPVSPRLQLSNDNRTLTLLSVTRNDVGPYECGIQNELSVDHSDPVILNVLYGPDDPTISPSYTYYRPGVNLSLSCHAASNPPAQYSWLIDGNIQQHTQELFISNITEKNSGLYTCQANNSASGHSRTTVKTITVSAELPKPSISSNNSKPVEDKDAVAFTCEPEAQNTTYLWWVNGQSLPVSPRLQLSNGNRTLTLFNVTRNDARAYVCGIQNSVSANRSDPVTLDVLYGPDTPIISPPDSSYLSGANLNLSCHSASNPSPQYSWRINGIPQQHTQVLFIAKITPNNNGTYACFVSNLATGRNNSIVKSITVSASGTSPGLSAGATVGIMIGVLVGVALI

- T-cell mediated lysis of LS-174T, IC50 (CEACAM5 (human)): 2 pM
Substance: (14)-3s, anti-CEACAM5 x anti-CD3 DNL complex (two CH1-DDD2-Fab-hMN-14 + one scFv-AD2-Okt3) (bispecific antibody)

Substance: (20)-3s, anti-CD20 x anti-CD3 DNL complex (two CH1-DDD2-Fab-hA20 + one scFv-AD2-Okt3) (bispecific antibody)
- T-cell mediated killing of Daudi, IC50 (CD20 (human)): < 0.3 pM
- T-cell mediated killing of Daudi, LysisMax (CD20 (human)): 90%
- T-cell mediated killing of Jeko, LysisMax (CD20 (human)): 90%
- T-cell mediated killing of Namalwa, LysisMax (CD20 (human)): 53%
- ex vivo re-directed T-cell killing of Daudi, IC50 (CD20 (human)): 0.3 pM
- ex vivo re-directed T-cell killing of Jeko-1, IC50 (CD20 (human)): 1 pM
- ex vivo re-directed T-cell killing of Namalwa, IC50 (CD20 (human)): 30 pM
- ex vivo re-directed T-cell killing of Ramos, IC50 (CD20 (human)): 0.4 pM

- % of cell population in T cell-B cell association (CD3+CD20+) at 0.1 µg/mL (19)-3s (CD19 (human)): > 25%
- association of Daudi cells with T cells after (19)-3s (CD19 (human)): > 90%
- co-binding of Daudi and T cells, % CD20+/CD7+ flow events after (19)-3s (CD19 (human)): 45.5%
- concentration at saturation of (19)-3s-mediated cell-to-cell association (Jurkat/Daudi) (CD19 (human)): 0.037 to 0.111 µg/mL
Substance: (19)-3s, anti-CD19 x anti-CD3 DNL complex (two CH1-DDD2-Fab-hA19 + one scFv-AD2-Okt3) (bispecific antibody)
- T-cell mediated killing of Daudi, LysisMax (CD19 (human)): 60%
- T-cell mediated killing of Nalm6, LysisMax (CD19 (human)): 93%
- T-cell mediated killing of Namalwa, LysisMax (CD19 (human)): 60%
- T-cell mediated killing of Raji, IC50 (CD19 (human)): 3 nM
- T-cell mediated killing of Raji, LysisMax (CD19 (human)): 41%
- T-cell mediated killing of Ramos, IC50 (CD19 (human)): 0.17 pM
- T-cell mediated killing of Ramos, LysisMax (CD19 (human)): 79%
- ex vivo re-directed T-cell killing of Daudi, IC50 (CD19 (human)): 1 pM
- ex vivo re-directed T-cell killing of Jeko-1, IC50 (CD19 (human)): 3000 pM
- ex vivo re-directed T-cell killing of Nalm-6, IC50 (CD19 (human)): 6 pM
- ex vivo re-directed T-cell killing of Namalwa, IC50 (CD19 (human)): 63 pM
- ex vivo re-directed T-cell killing of Raji, IC50 (CD19 (human)): > 3000 pM
- ex vivo re-directed T-cell killing of Ramos, IC50 (CD19 (human)): 2 pM

Substance: (C2)-3s, anti-HLA-DR x anti-CD3 DNL complex (two CH1-DDD2-Fab-hL243 + one scFv-AD2-Okt3) (bispecific antibody)
- T-cell mediated killing of Jeko-1, LysisMax (HLA-DR (human)): 88%
- ex vivo re-directed T-cell killing of Jeko-1, IC50 (HLA-DR (human)): 20 pM
- ex vivo re-directed T-cell killing of Ramos, IC50 (HLA-DR (human)): 2 pM

- T-cell mediated lysis of NCI-N87, IC50 (CEACAM6 (human)): 3 pM
Substance: (15)-3s, anti-CEACAM6 x anti-CD3 DNL complex (two CH1-DDD2-Fab-hMN-15 + one scFv-AD2-Okt3) (bispecific antibody)

- T-cell mediated lysis of Daudi, IC50 (CD22 (human)): 5 pM
- T-cell mediated lysis of Daudi, LysisMax (CD22 (human)): 60%
Substance: (22)-3s, anti-CD22 x anti-CD3 DNL complex (two CH1-DDD2-Fab-hLL2 + one scFv-AD2-Okt3) (bispecific antibody)
- ex vivo re-directed T-cell killing of Daudi, IC50 (CD22 (human)): 6 pM
- ex vivo re-directed T-cell killing of Namalwa, IC50 (CD22 (human)): > 3000 pM
